From patent US20210040221A1 (published 2021)
Changes are numbered by the printed parent chain. Read-outs that look alike come from different tables or passages of the source. Blank lines part the entries; values can stand above or below the binder they belong to.

What was measured:
[1] = target: T1, recombinant human CD25 his tagged (UniProt P01589 22-213); assay: SPR (Biacore 2000)
T1 chain: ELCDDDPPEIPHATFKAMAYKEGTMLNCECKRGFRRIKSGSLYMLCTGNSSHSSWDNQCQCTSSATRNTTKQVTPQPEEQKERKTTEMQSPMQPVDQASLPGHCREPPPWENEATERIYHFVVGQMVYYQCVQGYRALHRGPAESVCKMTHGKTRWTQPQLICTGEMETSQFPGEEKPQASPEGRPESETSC

[2] = target: T1, recombinant human CD25 his tagged; assay: SPR (Biacore 2000)

B2: Antibody 1 (antibody, V domains shown)
VH: EVQLLESGGGLVQPGGSLRLSCAASGFTFSSYGMSWVRQAPGKGLELVSTINGYGDTTYYPDSVKGRFTISRDNSKNTLYLQMNSLRAEDTAVYYCARDRDYGNSYYYALDYWGQGTLVTVSS
VL: EIVLTQSPGTLSLSPGERATLSCRASSSVSFMHWLQQKPGQAPRPLIYATSNLASGIPDRFSGSGSGTDYTLTISRLEPEDFAVYYCQQWSSNPPAFGQGTKLEIK
- Kd [2]: 4.7 nM

B3: Antibody 2 (antibody, V domains shown)
VH: B2 VH
VL: B2 VL with E1Q, A42S
- Kd [2]: 6.1 nM

Continued, values first:

- Kd [1]: 6.1 nM
B1: Antibody 3 (antibody, V domains shown)
VH: B2 VH with S75A, Y95F
VL: B2 VL

- Kd [1]: 5.5 nM
B4: Antibody 4 (antibody, V domains shown)
VH: B2 VH with S75A, Y95F
VL: B2 VL with E1Q, A42S
